The target in assay [1] is FCGR1 (UniProt P12314).
Assay [2] concerns the target FCGR 2a (H 167) (UniProt P12318).
The target in assay [3] is FCGR 3a (V 176) (UniProt P08637).
The target in assay [4] is FcRn (UniProt P55899).
Assay [5] deals with FCGR 2b/c (UniProt P31994).
The target in assay [6] is FCGR 3a (F 176) (UniProt P08637).

The results in this text go back to patent US20230192818A1.

Where “and” joins values, the source holds several entries; their conditions need not be identical. Equal values may be shown once.

Chain of FCGR 3a (F 176) (P08637 17-208 limits assumed): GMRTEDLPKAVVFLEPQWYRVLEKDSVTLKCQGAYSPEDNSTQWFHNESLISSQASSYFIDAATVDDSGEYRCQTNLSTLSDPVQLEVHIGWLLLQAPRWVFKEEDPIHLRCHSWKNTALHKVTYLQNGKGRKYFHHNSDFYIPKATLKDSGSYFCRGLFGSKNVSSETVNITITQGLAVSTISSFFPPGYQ
Chain of FCGR1 (P12314 16-288 limits assumed): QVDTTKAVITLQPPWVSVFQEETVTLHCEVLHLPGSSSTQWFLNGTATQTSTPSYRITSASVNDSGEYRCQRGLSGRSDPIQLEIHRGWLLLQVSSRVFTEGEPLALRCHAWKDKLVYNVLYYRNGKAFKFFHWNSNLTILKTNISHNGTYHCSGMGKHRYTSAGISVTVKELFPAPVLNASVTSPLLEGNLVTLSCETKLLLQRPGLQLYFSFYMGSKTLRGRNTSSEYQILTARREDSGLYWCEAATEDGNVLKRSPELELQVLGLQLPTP
Chain of FCGR 2b/c (P31994 46-217 limits assumed): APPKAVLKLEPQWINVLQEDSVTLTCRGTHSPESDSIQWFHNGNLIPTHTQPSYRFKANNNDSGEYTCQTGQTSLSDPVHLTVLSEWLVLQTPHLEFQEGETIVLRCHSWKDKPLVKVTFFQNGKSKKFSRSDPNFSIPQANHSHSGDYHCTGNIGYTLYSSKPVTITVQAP
Chain of FcRn (P55899 24-297 limits assumed, chain 1 of 2): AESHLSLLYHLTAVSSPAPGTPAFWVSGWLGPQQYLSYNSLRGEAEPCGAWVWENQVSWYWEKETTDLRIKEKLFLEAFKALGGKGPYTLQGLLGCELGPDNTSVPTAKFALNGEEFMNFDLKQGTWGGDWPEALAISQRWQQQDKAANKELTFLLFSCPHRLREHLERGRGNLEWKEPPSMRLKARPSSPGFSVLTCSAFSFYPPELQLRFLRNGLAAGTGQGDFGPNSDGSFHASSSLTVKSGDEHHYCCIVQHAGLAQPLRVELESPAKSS
Chain of FcRn (P61769 21-119 limits assumed, chain 2 of 2, further chain): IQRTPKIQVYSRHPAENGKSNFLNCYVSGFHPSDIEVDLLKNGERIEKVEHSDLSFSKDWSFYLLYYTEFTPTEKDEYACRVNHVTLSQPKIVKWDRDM
Chain of FCGR 3a (V 176) (P08637 17-208 F176V limits assumed): as the sequence (P08637 17-208 limits assumed) above, with F160V counted along it

A word on the Kd: it is a measure of binding affinity in units of concentration. Read a high Kd as a looser complex. For orientation: koff means the rate constant with which the complex falls apart. A higher koff goes with fast dissociation. Consider human IgG1 isotype control (antibody), for which the Kd in assay [1] is 0.46 nM; in assay [2], 462 nM and 537 nM; in assay [3], 161 nM and 210 nM; in assay [4], 81.1 nM and 86.5 nM; in assay [5] it was 1360 nM and 1590 nM; in assay [6], 1110 nM and 796 nM. The same substance yielded a koff in assay [1] of 0.000245 s⁻¹.
